Source: publication PMC10167327 (2023)
Each block holds one binder with its values, some of them ahead of it.

B2: Vtc4* (Vtc4(1–487), SPX and TTM domains of Vtc4 without the transmembrane domain) (domain or fragment)
chain: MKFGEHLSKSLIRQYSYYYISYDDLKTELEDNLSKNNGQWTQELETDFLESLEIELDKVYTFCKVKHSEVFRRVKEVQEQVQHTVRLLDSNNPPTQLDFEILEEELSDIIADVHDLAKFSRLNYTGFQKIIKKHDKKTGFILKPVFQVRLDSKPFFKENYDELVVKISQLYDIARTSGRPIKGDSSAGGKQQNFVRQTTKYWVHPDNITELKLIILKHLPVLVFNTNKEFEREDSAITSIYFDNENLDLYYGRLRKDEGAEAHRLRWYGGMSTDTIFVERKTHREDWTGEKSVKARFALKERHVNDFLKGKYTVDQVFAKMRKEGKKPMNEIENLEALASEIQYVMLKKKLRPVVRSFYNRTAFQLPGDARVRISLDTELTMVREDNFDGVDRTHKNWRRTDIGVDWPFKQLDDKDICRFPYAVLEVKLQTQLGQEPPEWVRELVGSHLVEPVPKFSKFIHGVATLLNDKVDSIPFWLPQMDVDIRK
modifications: RED-tris-NTA 2nd generation dye on the His tag (MST); RED-NHS 2nd generation dye (MST with TTM2)

Experiments:
[1] = target: B2; test: MST; 2.5 mM IP6
[2] = target: B2; test: MST; 2.5 mM 5-IP7
[3] = target: B2; test: MST
[4] = target: TTM4 (TTM domain of Vtc4, Vtc4(192–487)) (S. cerevisiae, UniProt P47075 192-487, RED-tris-NTA 2nd generation dye on the His tag); test: MST
[5] = target: B2; test: MST; +100 mM NaCl
SPX2 S189A = SPX2 S189A (S. cerevisiae, UniProt P43585 1-201, serine 189 to alanine); test: MST
SPX2 S187A = SPX2 S187A (S. cerevisiae, UniProt P43585 1-201, serine 187 to alanine); test: MST
SPX2 N121A = SPX2 N121A (S. cerevisiae, UniProt P43585 1-201, N121A); test: MST
SPX2 K127A = SPX2 K127A (S. cerevisiae, UniProt P43585 1-201, K127A); test: MST
SPX2 Y19F = SPX2 Y19F (S. cerevisiae, UniProt P43585 1-201, Y19F); test: MST
[6] = target: B2; test: MST; remark: listed apart in the source

Sequence of TTM4 (TTM domain of Vtc4, Vtc4(192–487)) (P47075 192-487): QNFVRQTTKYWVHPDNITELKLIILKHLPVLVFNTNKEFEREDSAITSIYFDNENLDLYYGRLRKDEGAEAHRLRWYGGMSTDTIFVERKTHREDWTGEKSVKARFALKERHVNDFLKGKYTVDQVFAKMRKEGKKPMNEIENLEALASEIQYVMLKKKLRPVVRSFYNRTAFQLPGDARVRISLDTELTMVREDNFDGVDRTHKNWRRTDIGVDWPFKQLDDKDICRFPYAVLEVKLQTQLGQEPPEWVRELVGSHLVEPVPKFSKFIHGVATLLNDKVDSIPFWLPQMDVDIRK

Kd [1]: > 300 µM
Kd [2]: > 1200 µM
Kd [3]: 18.8 µM
Kd [4]: 264 µM
Kd [5]: 91 µM
B1: SPX2 (SPX domain of Vtc2, Vtc2(1–201)) (domain or fragment)
chain: MLFGVKLANEVYPPWKGSYINYEGLKKFLKEDSVKDGSNDKKARWDDSDESKFVEELDKELEKVYGFQLKKYNNLMERLSHLEKQTDTEAAIKALDADAFQRVLEELLSESTELDNFKRLNFTGFAKIVKKHDKLYPKYPSVKSLLEVRLKELPSHSEEYSPLLYRISFLYNILRSNFNTASEPLASASKFSSIVSNDIDM

Binder: B2
Kd (SPX2 S189A): 71 µM
Kd (SPX2 S187A): 30 µM
Kd (SPX2 N121A): 118 µM
Kd (SPX2 K127A): 166 µM
Kd (SPX2 Y19F): 633 µM

Kd [6]: 500 µM
B3: SPX2∆α7 (Vtc2(1–182)) (domain or fragment)
chain: MLFGVKLANEVYPPWKGSYINYEGLKKFLKEDSVKDGSNDKKARWDDSDESKFVEELDKELEKVYGFQLKKYNNLMERLSHLEKQTDTEAAIKALDADAFQRVLEELLSESTELDNFKRLNFTGFAKIVKKHDKLYPKYPSVKSLLEVRLKELPSHSEEYSPLLYRISFLYNILRSNFNTAS
